Entries after “also recorded” stand apart in the source; their conditions may differ.
Assays:
[1] = biological target: Matrix-associated proTGFβ1; experiment: MSD-SET binding, ECM average of hLTBP1 and hLTBP3 complexes; parameters: species or system human; conditions: average KD of (B) and (C), read-out: (D) ECM AVRG
Source text: (§1) Column (A) of the table provides monoclonal antibodies with discrete amino acid sequences. […] Columns (B), (C), (E) and (F) provide affinities of each of the listed antibodies, measured in KD, towards the antigen complex as indicated, respectively. […] Similarly, Average KD values calculated from (E) and (F) are shown in the corresponding column (G), which collectively represents affinities of the antibodies to cell-surface or cell-associated proTGF complexes. Finally, relative ratios between the average KD values from columns (D) and (G) are expressed as fold bias” in column (H). Thus, the greater the numerical of column (H) is, the greater bias exists for the particular antibody, when comparing binding preferences of the antibody for matrix-associated complexes to cell-surface complexes. This is one way of quantitatively representing and comparing inherent bias of antibodies to their target complexes. Such analyses may be useful in guiding the selection process for a candidate antibody for particular therapeutic use. Select antibodies of the present disclosure, as measured by MSD-SET, show context-bias (i.e., greater than five-fold bias) or unbias (i.e., less than 5-fold bias) toward matrix-associated complexes over cell-associated complexes. […] Without being bound by a particular theory, the differences in the kinetics of the assays and/or differences in the nature of recombinant proteins may account for the noticeable differences seen in Ab19 binding to hGARP complexes observed in the above Octet assay (see Table 6) compared to the below MSD-SET assay (see Table 7 below). For example, the Octet assay measures kinetic on and off rates, while the MSD-SET assay measures binding at equilibrium. In addition, the recombinant antibodies used in the Octet assay were expressed as IgG1 antibodies in yeast, while the antibodies used in the MSD assay were expressed as IgG4 antibodies in mammalian cells.

[2] = system: CloudmanS91 tumors; experiment: CloudmanS91 melanoma mouse model, combination with anti-PD-1; assay type: in vivo; conditions: 10 mg/kg and 30 mg/kg i.p. weekly, in combination with anti-PD1
Experimental: Clone M3 [Cloudman S91 melanoma] (ATCC® CCL-53.1™) cells were obtained from the American Type Culture Collection (ATCC), and were maintained at CR Discovery Services as exponentially growing suspension cultures in Kaighn's modified Ham's F12 Medium supplemented with 2.5% fetal bovine serum, 15% horse serum, 2 mM glutamine, 100 units/mL penicillin G sodium, 100 μg/mL streptomycin sulfate and 25 μg/mL gentamicin. The tumor cells were grown in tissue culture flasks in a humidified incubator at 37° C., in an atmosphere of 5% CO2 and 95% air.
An untreated control was used, data not shown.

[3] = biological target: Matrix-associated proTGFβ1; experiment: Octet binding, ECM average of hLTBP1 and hLTBP3 complexes; parameters: species or system human; conditions: average KD of (B) and (C), read-out: (D) ECM AVRG
Source text: (§2) Column (A) of the table provides monoclonal antibodies with discrete amino acid sequences. […] Columns (B), (C), (E) and (F) provide affinities of each of the listed antibodies, measured in KD, towards the antigen complex as indicated, respectively. […] Average KD values calculated from (B) and (C) are shown in the corresponding column (D), which collectively represents affinities of the antibodies to ECM- or matrix-associated proTGFβ1 complexes. Similarly, Average KD values calculated from (E) and (F) are shown in the corresponding column (G), which collectively represents affinities of the antibodies to cell-surface or cell-associated proTGF complexes. Finally, relative ratios between the average KD values from columns (D) and (G) are expressed as fold bias” in column (H). Thus, the greater the numerical of column (H) is, the greater bias exists for the particular antibody, when comparing binding preferences of the antibody for matrix-associated complexes to cell-surface complexes. This is one way of quantitatively representing and comparing inherent bias of antibodies to their target complexes. Such analyses may be useful in guiding the selection process for a candidate antibody for particular therapeutic use.

[4] = 4-week rat toxicology study (weekly dosing); assay type: in vivo
Source text: Animals were sacrificed and necropsies performed.

[5] = biological target: T1, proTGFβ1 C4S (Homo sapiens, UniProt P01137, C33S); experiment: Octet Red384 pH-sensitivity of binding (dissociation at pH 7 and pH 5); conditions: dissociation at pH 7 vs pH 5
T1 sequence (P01137 30-390 C33S): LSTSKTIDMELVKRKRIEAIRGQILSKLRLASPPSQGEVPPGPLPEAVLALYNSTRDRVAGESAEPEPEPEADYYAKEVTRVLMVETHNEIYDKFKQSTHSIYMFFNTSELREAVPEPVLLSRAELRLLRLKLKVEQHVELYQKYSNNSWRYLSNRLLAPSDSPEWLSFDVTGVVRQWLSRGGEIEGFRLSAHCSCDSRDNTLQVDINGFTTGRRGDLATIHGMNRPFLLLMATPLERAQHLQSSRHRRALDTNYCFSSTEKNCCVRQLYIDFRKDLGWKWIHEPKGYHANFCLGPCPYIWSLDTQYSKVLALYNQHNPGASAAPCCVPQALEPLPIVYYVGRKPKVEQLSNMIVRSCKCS
Experimental: The antibodies were tested against sensor-immobilized human proTGFβ1 C4S, which contains a mutation in the prodomain to facilitate proTGFβ1 expression without disulfide linkage to a presentation molecule.
Then, the tips were moved into an activation solution for 5 minutes. […] The activation solution is prepared immediately before use in the experiment. After tip activation, the tips were loaded for 3 minutes with a 10 ug/mL solution of human proTGFβ1 C4S in 10 mM sodium acetate buffer pH 5. After loading, the tips were quenched in ethanolamine pH 8.5 for 15 minutes. The tips were then baseline/blocked with a 20 minute incubation in 1× enhanced kinetics buffer. 1× enhanced kinetics buffer (1×EKB) is 1× kinetics buffer (ForteBio part no 18-1105 diluted from 10× with PBS) with the addition of 2% BSA (Sigma A3059-100G), 0.5 M NaCl (FisherS671-10), and 0.09% tween-20 (P7949-500M). […] The dissociation was performed in 1×KB at pH 7 and pH 5.

[6] = biological target: T1, proTGFβ1 C4S; experiment: HDX-MS determination of binding regions; conditions: 1:3 molar ratio of proTGFβ1 to Fab
Source text: Briefly, HDX-MS relies on the exchange of the protein backbone amide hydrogens with deuterium in solution. The backbone amide hydrogens involved in weak hydrogen bonds or located at the surface of the protein may exchange rapidly while those buried in the interior or those involved in stabilizing hydrogen bonds exchange more slowly. Based on the mass difference between hydrogen (1 Da) and deuterium (2 Da), which can be detected for example by mass spectrometry, the H-D exchange can be monitored overtime, Thus, by measuring HDX rates of backbone amide hydrogens, one can obtain information on protein dynamics, conformation and protein-protein interaction such as antibody-antigen-binding.
In HDX-MS, the regions of an antigen that are tightly bound by an antibody are protected from proton exchange, due to protein-protein interaction, while regions that are exposed to solvent can readily undergo proton exchange. Based on this, binding regions within the antigen, which are protected by the specific binding of the antibody, were identified.

[7] = system: fibrosis-associated genes (Col1a1, Col3a1, Fn1, Lox, Lox/2, Acta2, Mmp2, Itga11); experiment: Unilateral ureteral obstruction (UUO) model of acute kidney fibrosis, qPCR of fibrosis-associated genes; assay type: in vivo, mouse; conditions: i.p. days −1 and 4, kidney qPCR day 5
Experimental: Inhibition of acute fibrosis by anti-TGFβ1 antibodies was tested in the unilateral ureteral obstruction (UUO) model of acute kidney fibrosis. In this model, fibrosis is induced in male mice by permanent surgical ligation of the left ureter on study day 0.
Kidneys were collected at the end of study, on day 5 after surgery, and RNA was harvested from these tissues. The degree of fibrosis induction was subsequently assessed by quantitative polymerase chain reaction (qPCR) for a panel of fibrosis-associated genes, including Collagen I (Col1a1), Collagen III (Col3a1), Fibronectin 1 (Fn1), Lysyl Oxidase (Lox), Lysyl Oxidase-like 2 (Lox/2), Smooth muscle actin (Acta2), Matrix metalloprotease (Mmp2), and Integrin alpha 11 (Itga11) (Rolfe, Irvine, Grobbelaar, & Linge, 2007) (Tamaki et al., 1994) (Bansal et al., 2017)(Leaf& Duffield, 2016).

[8] = system: Cell-associated proTGFβ1; experiment: MSD-SET binding, cell average of hGARP and hLRRC33 complexes; parameters: species or system human; conditions: average KD of (E) and (F), read-out: (G) Cell AVRG
Source text: as §1

[9] = Effective dose and therapeutic window across preclinical models (summary); assay type: in vivo
Source text: Effective amount: An “effective amount” (or therapeutically effective amount, or therapeutic dose) is a dosage, concentration, or dosing regimen that achieves statistically significant clinical benefits (e.g., efficacy) in a patient population.
Therapeutic window: The term “therapeutic window” refers to a range of doses/concentrations that produces therapeutic response without causing significant/observable/unacceptable adverse effect (e.g., within adverse effects that are acceptable or tolerable) in subjects. Therapeutic window may be calculated as a ratio between minimum effective concentrations (MEC) to the minimum toxic concentrations (MTC).

[10] = system: Cell-associated proTGFβ1; experiment: Octet binding, cell average of hGARP and hLRRC33 complexes; parameters: species or system human; conditions: average KD of (E) and (F), read-out: (G) Cell AVRG
Source text: as §2

B1: Ab2: isoform-selective inhibitor of TGFβ1 activation; VH SEQ ID NO: 13, VL SEQ ID NO: 15; human IgG4 (antibody, V domains shown)
VH: EVQLLESGGGLVQPGGSLRLSCAASGFTFADYAMTWVRQAPGKGLEWVSAISGSGAATYFADSVKGRFTISRDNSKNTLYLQMNSLRAEDTAVYYCARVSSGHWDFDYWGQGTLVTVSS
VL: DIQLTQSPSSLSASVGDRVTITCRASQSISSYLNWYQQKPGKAPKLLIYAASNLQSGVPSRFSGSGSGTDFTLTISSLQPEDFATYYCQQTYTVPLTFGGGTKVEIK
modifications: human IgG4 constant regions
With B1 the Kd [1] was 0.266 nM, the “Tumor growth (median tumor progression)” value [2] was “delayed tumor growth” and the Kd [3] was 0.157 nM. For the same molecule, the Test article-related toxicity ([4]; once weekly for 4 weeks up to 100 mg/kg, Fischer 344 or SD rats) was “free of observable toxicities associated with pan-inhibition of TGFβ; also recorded: no observable test article-related toxcity in either rat strain; also recorded: no toxic effects over background”, the MTD ([4]; rats, suggested from NOAEL of four-week toxicology study) was greater than 100 mg/kg and the NOAEL ([4]; rats, weekly dose for 4 weeks, highest dose tested) was 100 mg/kg. For the same molecule, the “pH sensitivity of binding” value [5] was “Ab2 is pH-sensitive”, the “Regions of proTGFβ1 protected from H/D exchange upon Fab binding (binding regions 1, 2, 3)” value [6] was “LREAVPE; also recorded: WKWIHEPKGYHANFCLG” and the “Fibrosis-associated gene expression in UUO kidney vs UUO+IgG” value ([7]; 3 mg/kg/wk) was “trend towards reduced Col3a1 expression, though this effect does not reach statistical significance; also recorded: reduction of both Fn1 and, particularly, Lox/2 (P=0.06), though suppression of neither gene is statistically significant; also recorded: Col1a1 and Lox expression were also reduced”. For the same molecule, the “Fibrosis-associated gene expression in UUO kidney vs UUO+IgG” value ([7]; 10 mg/kg/wk) was “suppressed fibrotic gene induction by UUO; also recorded: highly significant (P<0.005 vs UUO+IgG) inhibition of both Fn1 and Lox/2; also recorded: all genes examined except Mmp2 showed a statistically significant change in expression”, the Kd [8] was 2.3 nM and the Effective amount [9] was 3 to 30 mg/kg. For the same molecule, the Kd [10] was 0.643 nM.
